Earlier results as cited in PMC2888655.
Where two headings read alike, the source gives them in different places.

Legend:
IGF2 (Homo sapiens) [1] = target: IGF2 (Homo sapiens) (UniProt P01344); assay: SPR
IGF1 (Homo sapiens) [2] = target: IGF1 (Homo sapiens) (UniProt P05019); assay: SPR
IGF2 (Homo sapiens) [3] = target: IGF2 (Homo sapiens) (UniProt P01344)
IGF1 (Homo sapiens) [4] = target: IGF1 (Homo sapiens) (UniProt P05019)

Sequence of IGF2 (Homo sapiens) (P01344 25-91): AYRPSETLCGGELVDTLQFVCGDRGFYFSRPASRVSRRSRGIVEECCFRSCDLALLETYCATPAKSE
Sequence of IGF1R (from UniProt P08069) (P08069 31-736): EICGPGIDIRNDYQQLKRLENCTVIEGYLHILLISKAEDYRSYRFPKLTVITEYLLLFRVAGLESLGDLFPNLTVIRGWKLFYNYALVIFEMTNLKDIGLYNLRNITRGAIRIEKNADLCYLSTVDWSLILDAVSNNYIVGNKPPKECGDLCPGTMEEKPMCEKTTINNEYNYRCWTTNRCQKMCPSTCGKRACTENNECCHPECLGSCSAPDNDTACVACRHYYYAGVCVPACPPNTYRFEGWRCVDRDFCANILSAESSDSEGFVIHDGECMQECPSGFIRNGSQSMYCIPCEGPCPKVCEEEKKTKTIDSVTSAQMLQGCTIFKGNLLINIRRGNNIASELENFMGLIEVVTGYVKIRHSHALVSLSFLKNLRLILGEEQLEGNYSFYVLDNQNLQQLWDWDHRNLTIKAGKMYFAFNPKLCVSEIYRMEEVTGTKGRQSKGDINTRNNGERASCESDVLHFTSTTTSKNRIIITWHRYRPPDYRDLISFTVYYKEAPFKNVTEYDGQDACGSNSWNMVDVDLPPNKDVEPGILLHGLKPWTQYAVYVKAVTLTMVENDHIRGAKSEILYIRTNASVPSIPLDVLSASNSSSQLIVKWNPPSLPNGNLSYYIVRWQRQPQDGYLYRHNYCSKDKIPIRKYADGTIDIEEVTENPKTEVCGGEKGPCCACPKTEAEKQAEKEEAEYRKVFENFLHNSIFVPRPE
Sequence of IGF1R (from UniProt P08069) (P08069 741-935): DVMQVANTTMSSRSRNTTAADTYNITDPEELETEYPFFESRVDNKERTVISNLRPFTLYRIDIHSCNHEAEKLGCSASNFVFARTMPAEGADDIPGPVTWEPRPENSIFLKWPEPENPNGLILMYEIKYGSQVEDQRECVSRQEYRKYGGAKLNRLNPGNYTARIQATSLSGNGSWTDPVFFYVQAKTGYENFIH
Sequence of IGF1R (from UniProt Q05688) (Q05688 14-208): as the sequence (P08069 741-935) above, with D1E, V5I, A19V, A20L, G189T counted along it
Sequence of IGF1 (Homo sapiens) (P05019 49-118): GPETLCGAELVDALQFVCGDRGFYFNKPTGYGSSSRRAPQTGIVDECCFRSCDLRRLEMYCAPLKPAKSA

Kd (IGF2 (Homo sapiens) [1]) [nM]	Kd (IGF1 (Homo sapiens) [2]) [nM]	Kd (IGF2 (Homo sapiens) [3]) [nM]	Kd (IGF1 (Homo sapiens) [4]) [nM]	Substance
17.8	4.45	–	–	IGF1R (from UniProt P08069)
–	–	1	1	IGF1R (from UniProt Q05688)
